Laboratory results reported in the Human Domainome abundance scans (Beltran et al. 2025).
± gives the uncertainty stated by the source.

B1: Transcription factor SOX-11, residues 50 to 117; numbered along this chain, P35716 (parent)
chain: KRPMNAFMVWSKIERRKIMEQSPDMHNAEISKRLGKRWKMLKDSEKIPFIREAERLRLKHMADYPDYK

Variants of: B1
Assay: abundance fitness (aPCA) (normalised: wild type 0, dead -1); higher = more abundant; growth selection in yeast, the domain comes from the species named
Conditions: Homo sapiens

Q: With E14S as the variant, how does the abundance fitness read?
A: -0.488 ± 0.067

Q: With E14Y as the variant, how does the abundance fitness read?
A: -0.696 ± 0.11

Q: With E14G as the variant, how does the abundance fitness read?
A: -0.771 ± 0.089

Q: For K36C, which abundance fitness is on record?
A: -0.166 ± 0.062

Q: With A62L as the variant, how does the abundance fitness read?
A: -0.123 ± 0.044

Q: For A62H, which abundance fitness is on record?
A: -0.251 ± 0.059

Q: Which abundance fitness does the source give for A62W here?
A: -0.43 ± 0.098

Q: Which abundance fitness does the source give for R37W here?
A: -0.418 ± 0.2

Q: With R37M as the variant, how does the abundance fitness read?
A: -0.058 ± 0.11

Q: Which abundance fitness does the source give for R37T here?
A: 0.205 ± 0.06

Q: Which abundance fitness does the source give for R37Y here?
A: -0.59 ± 0.068

Q: Which abundance fitness does the source give for R37C here?
A: -0.346 ± 0.057

Q: With R37N as the variant, how does the abundance fitness read?
A: 0.001 ± 0.051

Q: With R37V as the variant, how does the abundance fitness read?
A: -0.271 ± 0.052

Q: Which abundance fitness does the source give for R37G here?
A: 0.01 ± 0.056

Q: With R37E as the variant, how does the abundance fitness read?
A: 0.188 ± 0.1

Q: For W38E, which abundance fitness is on record?
A: -1.27 ± 0.46

Q: For W38R, which abundance fitness is on record?
A: -0.653 ± 0.12

Q: Which abundance fitness does the source give for D66T here?
A: -0.657 ± 0.24

Q: With D66S as the variant, how does the abundance fitness read?
A: -0.368 ± 0.091

Q: Which abundance fitness does the source give for D66V here?
A: -0.545 ± 0.18

Q: With D66L as the variant, how does the abundance fitness read?
A: -0.226 ± 0.11

Q: For D66F, which abundance fitness is on record?
A: -0.265 ± 0.11

Q: For E52M, which abundance fitness is on record?
A: -0.396 ± 0.12

Q: With E52S as the variant, how does the abundance fitness read?
A: -0.785 ± 0.072

Q: Which abundance fitness does the source give for Q21I here?
A: -0.13 ± 0.056

Q: Which abundance fitness does the source give for Q21E here?
A: 0.148 ± 0.13

Q: With Q21P as the variant, how does the abundance fitness read?
A: -0.437 ± 0.13

Q: With Q21N as the variant, how does the abundance fitness read?
A: -0.156 ± 0.056

Q: With Q21L as the variant, how does the abundance fitness read?
A: -0.353 ± 0.064

Q: Which abundance fitness does the source give for Q21D here?
A: -0.267 ± 0.067

Q: For L56V, which abundance fitness is on record?
A: -0.528 ± 0.063

Q: For R33L, which abundance fitness is on record?
A: 0.438 ± 0.056

Q: With K1I as the variant, how does the abundance fitness read?
A: -0.048 ± 0.062

Q: Which abundance fitness does the source give for S44I here?
A: 0.005 ± 0.065

Q: With S44F as the variant, how does the abundance fitness read?
A: -0.132 ± 0.066

Q: With S44R as the variant, how does the abundance fitness read?
A: -0.24 ± 0.078

Q: Which abundance fitness does the source give for K46P here?
A: -0.844 ± 0.14

Q: With L34H as the variant, how does the abundance fitness read?
A: -0.846 ± 0.11

Q: With L34Y as the variant, how does the abundance fitness read?
A: -0.826 ± 0.089

Q: Which abundance fitness does the source give for K59P here?
A: -0.403 ± 0.089

Q: For K12C, which abundance fitness is on record?
A: -0.131 ± 0.07

Q: For G35T, which abundance fitness is on record?
A: 0.262 ± 0.059

Q: With M19S as the variant, how does the abundance fitness read?
A: -0.264 ± 0.056

Q: Which abundance fitness does the source give for M19C here?
A: -0.29 ± 0.075

Q: Which abundance fitness does the source give for M19N here?
A: -0.426 ± 0.071

Q: With M19K as the variant, how does the abundance fitness read?
A: 0.021 ± 0.15

Q: Which abundance fitness does the source give for R57D here?
A: -0.137 ± 0.073

Q: With R57Y as the variant, how does the abundance fitness read?
A: -0.248 ± 0.056

Q: For R57K, which abundance fitness is on record?
A: 0.137 ± 0.11

Q: For R57Q, which abundance fitness is on record?
A: -0.057 ± 0.12

Q: With R57I as the variant, how does the abundance fitness read?
A: -0.384 ± 0.065

Q: For K17Q, which abundance fitness is on record?
A: -0.199 ± 0.39

Q: For K17H, which abundance fitness is on record?
A: -0.47 ± 0.08

Q: For K17F, which abundance fitness is on record?
A: -0.531 ± 0.065

Q: For K17P, which abundance fitness is on record?
A: -0.566 ± 0.13

Q: With E54C as the variant, how does the abundance fitness read?
A: -0.42 ± 0.089

Q: Which abundance fitness does the source give for E54L here?
A: -0.601 ± 0.083

Q: Which abundance fitness does the source give for P23M here?
A: -0.85 ± 0.24

Q: With M4F as the variant, how does the abundance fitness read?
A: -0.186 ± 0.053

Q: Which abundance fitness does the source give for M4D here?
A: 0.059 ± 0.065

Q: Which abundance fitness does the source give for W10N here?
A: -0.594 ± 0.079

Q: With W10P as the variant, how does the abundance fitness read?
A: -0.589 ± 0.13

Q: With W10C as the variant, how does the abundance fitness read?
A: -1.01 ± 0.14

Q: With A6R as the variant, how does the abundance fitness read?
A: -0.776 ± 0.17

Q: Which abundance fitness does the source give for N27K here?
A: -0.178 ± 0.15

Q: With N27C as the variant, how does the abundance fitness read?
A: -0.08 ± 0.055

Q: For N27G, which abundance fitness is on record?
A: -0.096 ± 0.056

Q: With N27H as the variant, how does the abundance fitness read?
A: 0.139 ± 0.054

Q: For K42Y, which abundance fitness is on record?
A: -0.525 ± 0.077

Q: Which abundance fitness does the source give for K42G here?
A: -0.221 ± 0.063

Q: With K42E as the variant, how does the abundance fitness read?
A: -0.387 ± 0.17

Q: With K42W as the variant, how does the abundance fitness read?
A: -0.706 ± 0.16

Q: Which abundance fitness does the source give for K42D here?
A: -0.263 ± 0.063

Q: With L58P as the variant, how does the abundance fitness read?
A: -0.473 ± 0.12

Q: Which abundance fitness does the source give for L58D here?
A: 0.188 ± 0.056

Q: Which abundance fitness does the source give for L58R here?
A: -0.118 ± 0.069

Q: With L58H as the variant, how does the abundance fitness read?
A: 0.065 ± 0.06

Q: For L58C, which abundance fitness is on record?
A: -0.116 ± 0.055

Q: Which abundance fitness does the source give for L58E here?
A: -0.294 ± 0.16

Q: With L58N as the variant, how does the abundance fitness read?
A: 0.068 ± 0.054

Q: Which abundance fitness does the source give for L58M here?
A: -0.149 ± 0.13

Q: With K39R as the variant, how does the abundance fitness read?
A: -0.119 ± 0.068
